Experimental data taken from US20160032014A1 (Amgen, published 2016).
Read-outs that look alike come from different tables or passages of the source.

B1: SS-15132 (antibody, V domains shown)
VH: EVQLVESGGGLVKPGGSLRLSCAASGFTFSSYSMNWVRQAPGKGLEWVSSISSSSSYHSYADSVKGRFTISRDNAKNSLYLQMNSLRAEDTAVYFCARDYDFHSAHYDAFDVWGQGTMVTVSS
VL: ESVLTQPPSVSGAPGQRVTISCTGSSSNIGAGYDVHWYQQLPGTAPKLLISGNSNRPSGVPDRFSGSKSGTSASLAITGLQAEDEADYYCQSYDSSLSGSVFGGGTKLTVLG
notes: 31H4 His variant: HC 68(58), 132(106), parental(113H)
B2: SS-15065 (antibody, V domains shown)
VH: EVQLVESGGGLVKPGGSLRLSCAASGFTFSSYSMNWVRQAPGKGLEWVSSISSSSSYISYADSVKGRFTISRDNAKNSLYLQMNSLRAEDTAVYFCARDYDFHSAHYDAFDVWGQGTMVTVSS
VL: ESVLTQPPSVSGAPGQRVTISCTGSSSNIGAGHDVHWYQQLPGTAPKLLISGNSNRPSGVPDRFSGSKSGTSASLAITGLQAEDEADYYCQSYDSSLSGSVFGGGTKLTVLG
notes: 31H4 His variant: LC 39(32), HC 132(106), parental(113H)
B3: SS-15087 (antibody, V domains shown)
VH: EVQLVESGGGLVKPGGSLRLSCAASGFTFSSYSMNWVRQAPGKGLEWVSSISSSSSYISYADSVKGRFTISRDNAKNSLYLQMNSLRAEDTAVYFCARDYDFHSAHYDAFDVWGQGTMVTVSS
VL: ESVLTQPPSVSGAPGQRVTISCTGSSSNIGAGYDVHWYQQLPGTAPKLLISGNSNRPSGVPDRFSGSKSGTSASLAITGLQAEDEADYYCQSYDSSLHGSVFGGGTKLTVLG
B4: SS-15114 (antibody, V domains shown)
VH: EVQLVESGGGLVKPGGSLRLSCAASGFTFSSHSMNWVRQAPGKGLEWVSSISSSSSYISYADSVKGRFTISRDNAKNSLYLQMNSLRAEDTAVYFCARDYDFHSAHYDAFDVWGQGTMVTVSS
VL: ESVLTQPPSVSGAPGQRVTISCTGSSSNIGAGYDVHWYQQLPGTAPKLLISGNSNRPSGVPDRFSGSKSGTSASLAITGLQAEDEADYYCQSYDSSLSGSVFGGGTKLTVLG
notes: 31H4 His variant: HC 39(32), 132(106), parental(113H)
B5: SS-15121 (antibody, V domains shown)
VH: EVQLVESGGGLVKPGGSLRLSCAASGFTFSSYSMNWVRQAPGKGLEWVSSISSHSSYISYADSVKGRFTISRDNAKNSLYLQMNSLRAEDTAVYFCARDYDFHSAHYDAFDVWGQGTMVTVSS
VL: ESVLTQPPSVSGAPGQRVTISCTGSSSNIGAGYDVHWYQQLPGTAPKLLISGNSNRPSGVPDRFSGSKSGTSASLAITGLQAEDEADYYCQSYDSSLSGSVFGGGTKLTVLG
notes: 31H4 His variant: HC 61(54), 132(106), parental(113H); parental LC
B6: SS-15124 (antibody, V domains shown)
VH: EVQLVESGGGLVKPGGSLRLSCAASGFTFSSYSMNWVRQAPGKGLEWVSSISSSSHYISHADSVKGRFTISRDNAKNSLYLQMNSLRAEDTAVYFCARDYDFHSAYYDAFDVWGQGTMVTVSS
VL: ESVLTQPPSVSGAPGQRVTISCTGSSSNIGAGYDVHWYQQLPGTAPKLLISGNSNRPSGVPDRFSGSKSGTSASLAITGLQAEDEADYYCQSYDSSLSGSVFGGGTKLTVLG
notes: 31H4 His variant: HC 66(56), 70(60), parental(113H)
B7: SS-15126 (antibody, V domains shown)
VH: EVQLVESGGGLVKPGGSLRLSCAASGFTFSSYSMNWVRQAPGKGLEWVSSISSSSHYISYADHVKGRFTISRDNAKNSLYLQMNSLRAEDTAVYFCARDYDFHSAYYDAFDVWGQGTMVTVSS
VL: ESVLTQPPSVSGAPGQRVTISCTGSSSNIGAGYDVHWYQQLPGTAPKLLISGNSNRPSGVPDRFSGSKSGTSASLAITGLQAEDEADYYCQSYDSSLSGSVFGGGTKLTVLG
notes: 31H4 His variant: HC 66(56), 73(63), parental(113H)
B8: SS-15136 (antibody, V domains shown)
VH: EVQLVESGGGLVKPGGSLRLSCAASGFTFSSYSMNWVRQAPGKGLEWVSSISSSSSYISHADSVKGRFTISRDNAKNSLYLQMNSLRAEDTAVYFCARDYDFHSAHYDAFDVWGQGTMVTVSS
VL: ESVLTQPPSVSGAPGQRVTISCTGSSSNIGAGYDVHWYQQLPGTAPKLLISGNSNRPSGVPDRFSGSKSGTSASLAITGLQAEDEADYYCQSYDSSLSGSVFGGGTKLTVLG
notes: 31H4 His variant: HC 70(60), 132(106), parental(113H)
B9: SS-15139 (antibody, V domains shown)
VH: EVQLVESGGGLVKPGGSLRLSCAASGFTFSSYSMNWVRQAPGKGLEWVSSISSSSSYISYAHSVKGRFTISRDNAKNSLYLQMNSLRAEDTAVYFCARDYDFHSAHYDAFDVWGQGTMVTVSS
VL: ESVLTQPPSVSGAPGQRVTISCTGSSSNIGAGYDVHWYQQLPGTAPKLLISGNSNRPSGVPDRFSGSKSGTSASLAITGLQAEDEADYYCQSYDSSLSGSVFGGGTKLTVLG
notes: 31H4 His variant: HC 72(62), 132(106), parental(113H)
B10: SS-15141 (antibody, V domains shown)
VH: EVQLVESGGGLVKPGGSLRLSCAASGFTFSSYSMNWVRQAPGKGLEWVSSISSSSSYISYADHVKGRFTISRDNAKNSLYLQMNSLRAEDTAVYFCARDYDFHSAHYDAFDVWGQGTMVTVSS
VL: ESVLTQPPSVSGAPGQRVTISCTGSSSNIGAGYDVHWYQQLPGTAPKLLISGNSNRPSGVPDRFSGSKSGTSASLAITGLQAEDEADYYCQSYDSSLSGSVFGGGTKLTVLG
notes: 31H4 His variant: HC 73(63), 132(106), parental(113H)
B11: SS-15497 (antibody, V domains shown)
VH: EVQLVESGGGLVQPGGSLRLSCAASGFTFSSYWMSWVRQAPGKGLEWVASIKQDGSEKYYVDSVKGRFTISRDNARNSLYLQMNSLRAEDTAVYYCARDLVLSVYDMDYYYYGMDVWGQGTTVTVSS
VL: DIVMTQSPLSLPVTPGEPASISCRSSQSLLHSGNGYNYLDWYLQKPGQSPQLLIYLGLNRASGVPDRFSGSGSGTDFTLKISRVEAEDVGVYYCMQAIHTPLTFGGGTKVEIKR
notes: HC VH6 (M103S, I107M), LC G33 insertion, S57L, L97I, Q98H
B12: SS-14835 (antibody, V domains shown)
VH: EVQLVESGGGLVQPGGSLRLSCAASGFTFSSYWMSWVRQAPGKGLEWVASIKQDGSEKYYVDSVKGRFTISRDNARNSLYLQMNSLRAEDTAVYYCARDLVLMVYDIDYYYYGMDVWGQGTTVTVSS
VL: DIVMTQSPLSLPVTPGEPASISCRSSQSLLHSGNGYNYLDWYLQKPGQSPQLLIYLGLNRASGVPDRFSGSGSGTDFTLKISRVEAEDVGVYYCMQAIHTPLTFGGGTKVEIKR
notes: HC WT, LC G33 insertion, S57L/L97I, Q98H
B13: SS-15196 (antibody, V domains shown)
VH: not shown
VL: DIVMTQSPLSLPVTPGEPASISCRSSQSLLHSGNGYNYLDWYLQKPGQSPQLLIYLGLNRASGVPDRFSGSGSGTDFTLKISRVEAEDVGVYYCMQAIHTPLTFGGGTKVEIKR
notes: HC I107M, LC G33 insertion, S57L, L97I, Q98H

Columns and labels:
[1] = target: T1, human PCSK9 (self-cleaved, mature, secreted PCSK9 comprising amino acids 31 to 692 of SEQ ID NO: 2) (human, UniProt Q8NBP7 31-692, biotinylated in the ELISAs); assay: SPR pH 5.5
T1 construct: Limits 31-692 are stated for the immunogen; the assays only say human PCSK9; also called huPCSK9; rhu PCSK9

[2] = target: T1, human PCSK9 (self-cleaved, mature, …); assay: SPR pH 7.4
[3] = target: T1, human PCSK9 (self-cleaved, mature, …); assay: SPR pH 7.4; remark: listed apart in the source
[4] = target: T1, human PCSK9 (self-cleaved, mature, …); assay: SPR pH 7.4; remark: listed apart in the source
[5] = target: T1, human PCSK9 (self-cleaved, mature, …); assay: solution equilibrium, BIAcore
[6] = target: T1, human PCSK9 (self-cleaved, mature, …); assay: solution equilibrium, BIAcore, pH 7.4
[7] = target: T1, human PCSK9 (self-cleaved, mature, …); assay: solution equilibrium, BIAcore, pH 5.5

Binder	estimated complex half life pH 5.5 [1] [s]	Kd [2] [nM]	koff [2] [s⁻¹]	kon [2] [M⁻¹ s⁻¹]	Kd [3] [nM]	koff [3] [s⁻¹]	kon [3] [M⁻¹ s⁻¹]	Kd [4] [nM]	koff [4] [s⁻¹]	kon [4] [M⁻¹ s⁻¹]	KD ratio pH 5.5/pH 7.4 [5]	Kd [6] [nM]	Kd [7] [nM]
B1	20	0.273	0.000338	1.24e+06	–	–	–	–	–	–	–	–	–
B2	100	0.274	0.000337	1.23e+06	–	–	–	–	–	–	–	–	–
B3	100	0.229	0.000288	1.26e+06	–	–	–	–	–	–	–	–	–
B4	100	0.271	0.00015	555000	–	–	–	–	–	–	–	–	–
B5	20	0.383	0.000563	1.47e+06	–	–	–	–	–	–	–	–	–
B6	100	0.327	0.000525	1.6e+06	–	–	–	–	–	–	–	–	–
B7	100	0.257	0.000385	1.5e+06	–	–	–	–	–	–	–	–	–
B8	100	0.241	0.000298	1.23e+06	–	–	–	–	–	–	–	–	–
B9	100	0.19	0.000248	1.31e+06	–	–	–	–	–	–	–	–	–
B10	100	0.185	0.000255	1.38e+06	–	–	–	–	–	–	–	–	–
B11	–	–	–	–	0.249	9.47e-05	381000	0.249	9.47e-05	381000	8.1	0.084	0.68
B12	–	–	–	–	0.534	0.000163	306000	0.534	0.000163	306000	8.9	0.35	3.1
B13	–	–	–	–	0.134	5.06e-05	377000	0.134	5.06e-05	377000	10.2	0.056	0.57
